The source of these data is publication PMC12751051, “Penaeus monodon fibrinogen-related lectin interacts with lipopolysaccharide and β-1,3-glucan binding protein to activate the innate immune system” (Biochemical Journal, 2025).

Assay [1] deals with recombinant Penaeus monodon lipopolysaccharide and β-1,3-glucan binding protein (Penaeus monodon) (UniProt H9MER4). Description: BLI; BLItz; rPmLGBP immobilised on Octet SA biosensor activated with EDC and NHS; analytes in 20 mM HEPES pH 7.5, 150 mM NaCl, 10 mM CaCl2; association 4 minutes, dissociation 4 minutes; curves globally fitted. (In general: Biolayer interferometry detects binding as a change in optical thickness at a sensor tip.)

The target in assay [2] is Penaeus monodon lipopolysaccharide and β-1,3-glucan binding protein (endogenous, hemolymph) (Penaeus monodon (endogenous in shrimp hemolymph)).
The next assay addresses T1, rPmFREP CRD (Penaeus monodon, UniProt A0A068LKH5).
T1 construct: XEEL signal peptide, His6 tag; insect cells; lacks oligomeric structure
In words: GlcNAc-resin affinity column, elution with free GlcNAc, anti-His Western blot. It counts as binding. Particulars: 8 ml GlcNAc resin; eluted with 100 mM GlcNAc; proteins loaded at 5 µM each; immobilised ligand. Background: Immunoblotting shows a protein as a band on a membrane.

For assay [3], the target named is T2, recombinant Penaeus monodon lipopolysaccharide and β-1,3-glucan binding protein (Penaeus monodon, UniProt H9MER4 1-366).
T2 construct: The construct holds the protein's own N-terminus (signal peptide); also called rPmLGBP; PmLGBP; source: insect cell expression system (Bac-to-Bac baculovirus), purified (Ni-NTA); not shown: His6, C-terminal, kept
T2 sequence (looked up): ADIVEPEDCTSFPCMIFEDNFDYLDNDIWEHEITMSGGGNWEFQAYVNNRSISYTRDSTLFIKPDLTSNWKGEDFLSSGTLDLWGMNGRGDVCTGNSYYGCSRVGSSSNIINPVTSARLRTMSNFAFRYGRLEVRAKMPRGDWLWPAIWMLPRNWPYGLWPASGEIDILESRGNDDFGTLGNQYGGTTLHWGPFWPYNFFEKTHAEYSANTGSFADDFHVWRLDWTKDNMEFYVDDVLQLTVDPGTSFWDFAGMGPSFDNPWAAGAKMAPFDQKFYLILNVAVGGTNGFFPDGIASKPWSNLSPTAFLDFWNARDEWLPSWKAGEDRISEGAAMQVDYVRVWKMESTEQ
In words: curdlan binding assay; rPmFREP and rPmLGBP, 0.1 µM each, incubated with 1 mg curdlan in 20 mM HEPES pH 7.5, 150 mM NaCl, 10 mM CaCl2, 4°C, 16 hours; curdlan collected by centrifugation, washed three times, eluted with 2% SDS; anti-His Western blot, densitometry of rPmFREP. Particulars: both partners purified.

In assay [4] the target is T2, recombinant Penaeus monodon …. In words: BLI; BLItz; rPmLGBP immobilised on Octet SA biosensor activated with EDC and NHS; analytes in 20 mM HEPES pH 7.5, 150 mM NaCl, 10 mM CaCl2; association 4 minutes, dissociation 4 minutes; curves globally fitted. Particulars: both partners purified.

The Kd is the free concentration of one partner at which half of the binding sites on the other are occupied at equilibrium, for simple one-to-one binding.

For the molecule rPmFREP CC-MBP (domain or fragment), the Kd in assay [1] was found to be 220 nM. In assay [2], the PO activity in hemolymph of shrimp injected with the recombinant protein (1 nmol/g shrimp) and then infected with VP AHPND, against rMBP-injected control shrimp was determined as 3 fold.
Regarding `CC(=O)N[C@H]1C(O)O[C@H](CO)[C@@H](O)[C@@H]1O` (stereo partly drawn) [N-acetylglucosamine], the “GlcNAc-resin affinity column, elution with free GlcNAc, anti-His Western blot” value on rPmFREP CRD was “rPmFREP and rPmFREP CRD were bound to the GlcNAc column”.

B1: recombinant Penaeus monodon fibrinogen-related protein (natural protein, UniProt A0A068LKH5 1-312, looked up)
chain: TTERTDTAEPQQPGGCHALPSLLQSAGSSLTCIAASLINCQANENDQLSIAQDLRDTMSEVRRAIVDAERRRRRPRHCRDLQLDGDSESGVRRVFPFRSSPDAAATVYCDQETDGGGWTVFQRRLKLPVREDFYRTWVEYELGFGHMDGGEFWLGLDLVHRLTSTGLQEMRIDLTDYEDNAKWAKYGVFHLGDASTKYRLKVGRYNGTAGDGFGSGRHDGHPFTTHDNDNDGDGANCAARYRGAWWYDKCHISNLNGFPYEGDHESYADGIEWQPWRGYHYSLKTTTMMIRPAF
notes: also called rPmFREP; PmFREP; source: insect cell expression system (baculovirus), purified (Ni-NTA)
For the molecule B1, the “fold more rPmFREP in the curdlan elution fraction with rPmLGBP than without it” value in assay [3] was roughly 3.1 fold. Besides, in assay [2], the PO activity in hemolymph of shrimp injected with the recombinant protein (1 nmol/g shrimp) and then infected with VP AHPND, against rMBP-injected control shrimp worked out at 3.4 fold. In addition, the equilibrium dissociation constant (Kd) in assay [4] came out at 340 nM.
